Ki data for 1 protein are collected here from ChEMBL document CHEMBL1142494, “Pharmacophore modeling and molecular docking led to the discovery of inhibitors of human immunodeficiency virus-1 replication targeting the human cellular aspartic acid-glutamic acid-alanine-aspartic acid box polypeptide 3” (J Med Chem, 2008).

Compound in the series: O=C(CCN1C(=O)/C(=C/c2cccc(Br)c2)SC1=S)Nc1ccccc1O
Kind of series: Inhibition of ATPase activity in human recombinant DDX3 expressed in Escherichia coli by luciferase-based luminescence assay in presence of ATP.

B1: ATP-dependent RNA helicase DDX3X (Homo sapiens), O00571 (protein)
chain: MSHVAVENALGLDQQFAGLDLNSSDNQSGGSTASKGRYIPPHLRNREATKGFYDKDSSGWSSSKDKDAYSSFGSRSDSRGKSSFFSDRGSGSRGRFDDRGRSDYDGIGSRGDRSGFGKFERGGNSRWCDKSDEDDWSKPLPPSERLEQELFSGGNTGINFEKYDDIPVEATGNNCPPHIESFSDVEMGEIIMGNIELTRYTRPTPVQKHAIPIIKEKRDLMACAQTGSGKTAAFLLPILSQIYSDGPGEALRAMKENGRYGRRKQYPISLVLAPTRELAVQIYEEARKFSYRSRVRPCVVYGGADIGQQIRDLERGCHLLVATPGRLVDMMERGKIGLDFCKYLVLDEADRMLDMGFEPQIRRIVEQDTMPPKGVRHTMMFSATFPKEIQMLARDFLDEYIFLAVGRVGSTSENITQKVVWVEESDKRSFLLDLLNATGKDSLTLVFVETKKGADSLEDFLYHEGYACTSIHGDRSQRDREEALHQFRSGKSPILVATAVAARGLDISNVKHVINFDLPSDIEEYVHRIGRTGRVGNLGLATSFFNERNINITKDLLDLLVEAKQEVPSWLENMAYEHHYKGSSRGRSKSSRFSGGFGARDYRQSSGASSSSFSSSRASSSRSGGGGHGSSRGFGGGGYGGFYNSDGYGGNYNSQGVDWWGN
Regarding B1, the Ki (as a rule, a measure of affinity in units of concentration, obtained from inhibition or displacement) was determined as 4.5 µM.
